Assay results reported in publication PMC9092470, “Understanding p300-transcription factor interactions using sequence variation and hybridization†” (RSC Chemical Biology, 2022).
Positions count from the first letter of the chain named. In names and notes the source's numbering stands. No end group written: not given here.

Columns and labels:
[1] = target: GST-p300 (p300 CH1 domain, residues 330–420) (Homo sapiens, UniProt Q09472); assay: Fluorescence anisotropy direct titration of GFP-HIF-1α776–826 variants with GST-p300; assay type: binding; conditions: 50 nM GFP-HIF-1α776–826 variant, GST-p300 serial dilution, 25 mM Tris–HCl, 150 mM NaCl, 1 mM DTT, pH 7.4, 27 °C, 1:1 model, ± standard error of fitted value, technical triplicates
Chain of GST-p300 (p300 CH1 domain, residues 330–420) (Q09472 330-420): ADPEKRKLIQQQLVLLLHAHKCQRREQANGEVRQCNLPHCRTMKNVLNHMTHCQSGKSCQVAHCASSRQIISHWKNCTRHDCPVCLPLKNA
From the text: To experimentally compare the predictions, we carried out an in vitro biophysical study of several HIF-1α sequence variants. We assessed predicted hot residues and their interactions with p300 using the NMR structure to visualize the structural basis behind the predictions (See ESI, ^† Fig. S2). These analyses helped refine a first series of alanine variants to prepare. […] HIF-1α776–826 sequence variants were recombinantly prepared based on the predictions to test their binding to the recombinantly prepared p300 (Fig. 2). Given the length of the peptide ([…]), this was considered advantageous as it obviates the need to chemically synthesise, label and purify multiple variants. As the C-TAD domain is unstructured in isolation it was recombinantly expressed as a fusion protein with GFP. The green-fluorescent protein (GFP) tag was used for fluorescence anisotropy (FA) experiments to determine the binding affinity of HIF-1α776–826 C-TAD variants to p300. As the CH1 domain of p300 is a small domain of 11 kDa it was recombinantly expressed as a fusion protein with GST to increase its size and thus the signal to noise in the FA experiments. We established an assay where the interaction between GFP-tagged wt HIF-1α776–826 and GST-tagged p300 was monitored by FA, using the fluorescence of GFP. GST dimerises with single digit nM Kd[61] (and in our hands exists as a dimer in size exclusion chromatography analyses, see ESI, ^† Fig. S15 for protein characterization data), thus two molecules of GFP-HIF-1α could bind to the GST-p300 dimer (Fig. 2a). We make the assumption that each p300 binding site behaves independently and analyse the binding isotherm using a 1 : 1 model.
(§1) Fig. 2 Biophysical analyses on the effects of HIF-1α sequence variant p300 binding affinity. (a) schematic depicting the equilibrium for interaction of GFP-HIF-1α776–826 variants and GST-p300 as studied by fluorescence anisotropy; (b) representative fluorescence anisotropy titration data for sAV and mAV GFP-HIF-1α776–826 peptides interacting with GST-p300 (25 mM Tris–HCl, 150 mM NaCl, 1 mM DTT, pH 7.4), error bars represent standard deviation of technical triplicates; (c) raw ITC data (upper) and fitted thermogram (lower) for the interaction of GFP-HIF-1α776–826 peptides with p300 (37 °C in 25 mM Tris–HCl, 150 mM NaCl, 1 mM DTT, pH 7.4) using 10 μM p300 in the cell and 100 μM GFP-HIF-1α776–826 variant in the syringe; error bars represent estimated integration errors (d) thermodynamic signatures for each interaction. […]
7.4 buffer or dialysed into 25 mM Tris, 150 mM NaCl, 1 mM DTT pH 7.4 buffer.
GSTp300 protein was serially diluted in buffer (25 mM Tris-HCl, 150 mM NaCl, 1mM DTT, pH 7.4) and GFP-HIF-1α (50nM final concentration) was added, the plates were read after 0 min, 60 min, 4 h and 24 h, and incubated at room temperature in between. Each experiment was run in triplicate and the fluorescence anisotropy measured using an EnVision 2103 MultiLabel plate reader (Perkin Elmer) with excitation at 480 nm and emission at 535 nm (30 nm bandwidths). The recorded temperature for all measurements was 27°C ± 1°C. In parallel, a control experiment was performed in which no GFP-HIF was added and the volume made up with additional buffer, this blank was deducted from the raw data for each of the three repeats.
The intensity was calculated for each point using eqn (1) and used to calculated anisotropy […]
using eqn (2). From a plot of anisotropy against GST-p300 concentration the minimum and maximum anisotropies were obtained using a logistic sigmoidal fit in OriginPro 8.6. This allowed the conversion to fraction bound (eqn (3)). The data were then fitted using eqn (4) in OriginPro 8.6 to determine the dissociation constant, Kd. […]
5 µl injections and 180 s spacing between injections, for 40 injections. Titrations were performed in 40 mM Na-phosphate, pH 7.5 100 mM NaCl, 1 mM DTT buffer except for GFP- […]

[2] = target: T1, p300 (CH1 domain, residues 330–420) (Homo sapiens, UniProt Q09472); assay: ITC of GFP-HIF-1α776–826 variants binding to p300; conditions: 37 °C, 25 mM Tris–HCl, 150 mM NaCl, 1 mM DTT, pH 7.4, 10 μM p300 in cell, 100 μM variant in syringe; for ΔH: 68% confidence interval in brackets
T1 construct: GST (N, cleaved yes); made in house; host or cells: E. coli BL21 pLysS (pGEX-4T1-p300)
T1 sequence (Q09472 330-420): as above
Description: as §1
Error bars represent standard deviation of technical triplicates.
Figure S5 Heat of dilution of (a) GFP titrated to buffer, (b) GFP titrated to p300 and (c) Raw ITC (upper) data and fitted thermogram (lower) for the interaction of GFP-HIF-1α776-826 D823A variant (37 °C in 25 mM Tris-HCl, 150 mM NaCl, 1mM DTT, pH 7.4) using 10 µM p300 in the cell and 100 µM HIF-1α variant in the syringe. ITC experiments were carried out using a Microcal ITC200i instrument (Malvern). All proteins were dialysed against the same buffer prior to experiment, buffer or 10 µM p300 was present in the cell and titrated with 100 µM GFP-HIF-1α or GFP loaded into the syringe using 16 x 2 μL injections with 120 s spacing between the injections. Heats of GFP or GFP-HIF-1α dilution were subtracted from the measurement raw data. Error bars represent the estimated integration errors. […]
(§2) Isothermal titration calorimetry
(§3) Prior to ITC measurement p300 CH1 was dialysed or run on S75 column in the buffer used for titration, and the same buffer was used to dissolve the pure peptides. Experiments with […]
(§4) MicroCal iTC200 instrument with 10 µM protein in the cell and 100 µM ligand in the syringe at 37°C, using 2 µl injections and 120 or 180 s spacing between injections. Experiments with the […]
(§5) instrument using 3-5 µM protein in the cell and 40-60 µM ligand in the syringe at 35°C, using 5 µl injections and 180 s spacing between injections, for 40 injections. Titrations were performed in 40 mM Na-phosphate, pH 7.5 100 mM NaCl, 1 mM DTT buffer except for GFP-HIF-1α and variants for which 25 mM Tris-HCl, 150 mM NaCl, 1mM DTT, pH 7.4 buffer was used. Data were analysed using NITPIC3 and fitted using SEDPHAT4 to a single binding site model (fixed 1:1 stoichiometry), with baseline and incompetent protein fraction as adjustable parameters. 68 % confidence intervals for the fitted values were determined using the automatic confidence interval search implemented in SEDPHAT. Figures were prepared using […]

[3] = target: T1, p300 (CH1 domain, residues 330–420); assay: ITC of chemically synthesized HIF-1α, CITED2 and CITIF peptides binding to p300; conditions: pH 7.5
Description: Raw ITC (upper) data and fitted thermogram (lower) (40 mM sodium phosphate, pH 7.5 100 mM NaCl, 1 mM DTT buffer using 5 μM protein in the cell and 60 μM ligand in the syringe at 35 °C) error bars represent the estimated integration errors; (b) Thermodynamic signatures for each interaction.
Figure S8 (a) Sequences of the truncated CITED2 peptides and isothermal titration […]
µM peptide in the syringe. All measurements were carried out 40 mM sodium phosphate, pH 7.5 100 mM NaCl, 1 mM DTT buffer at 35°C. Error bars represent the estimated integration […]
Table S2 Thermodynamic parameters for shortened CITED2 sequences. 68% confidence intervals for the fitting are shown in brackets. Data fitted to a single binding site model, fixed 1:1 stoichiometry with incompetent protein fraction as an adjustable parameter. […]
as §2, §3, §4, §5

[4] = target: T1, p300 (CH1 domain, residues 330–420); assay: ITC of expressed HIF-1α, CITED2 and CITIF peptides binding to p300; conditions: pH 7.5
Description: We hypothesized that it would be possible to enhance the affinity of HIF-1α for p300 by hybridising key regions of both CITED2 and HIF-1α (see later). We first measured the affinity of the parent peptides. A particular difficulty in comparing these peptide sequences is the different length used in different studies.[28,33,35,36] […]
data and fitted thermogram (lower) (40 mM sodium phosphate, pH 7.5 100 mM NaCl, 1 mM DTT buffer using 5 µM protein in the cell and 60 µM ligand in the syringe at 35°C); (b) Thermodynamic signatures for each interaction. […]
as §2, §3, §4, §5

[5] = target: T2, p300 CH1 domain (residues 330–420) (UniProt Q09472 330-420); assay: ITC; peptide in the syringe, p300 in the cell (Fig. 4: 5 μM protein, 60 μM ligand); 40 mM sodium phosphate, pH 7.5, 100 mM NaCl, 1 mM DTT, 35 °C; single-site model, fixed 1:1 stoichiometry; conditions: both partners purified
T2 construct: p300 CH1 domain, residues 330–420; The cleavage of GST is said for the anisotropy control; also called p300 with the GST tag cleaved; source: recombinantly expressed as a fusion protein with GST, GST tag cleaved
T2 sequence (Q09472 330-420): as above

[6] = target: T2, p300 CH1 domain (residues 330–420); assay: ITC; 10 μM p300 in the cell, 100 μM GFP-HIF-1α 776–826 variant in the syringe; 37 °C; 25 mM Tris–HCl, 150 mM NaCl, 1 mM DTT, pH 7.4; fixed 1:1 stoichiometry; conditions: both partners purified
[7] = target: GST-tagged p300 CH1 domain (residues 330–420) (UniProt Q09472); assay: fluorescence polarisation; fluorescence anisotropy by the fluorescence of GFP; GFP-HIF-1α 776–826 variants with GST-p300; 25 mM Tris–HCl, 150 mM NaCl, 1 mM DTT, pH 7.4; 1:1 model, each p300 site of the GST dimer taken as independent

Molecule: D823A: GFP-HIF-1α776–826 C-TAD single alanine variant D823A ({GFP}-SDLACRLLGQSMDESGLPQLTSYDCEVNAPIQGSRNLLQGEELLRALAQVN; cysteine pairing not given here)
- Kd [1]: 192 ± 17 nM
- ΔS [2]: −12.2 cal mol^−1 K^−1
- ΔH [2]: -13.0 kcal/mol

Molecule: Ac-NVIDTDFIDEEVLMSLVIEMGLDRIKELPELWLGQNEFDFMTDFVCKQQPSRVS-NH2 [CITED216–269]
- ΔH, synthetic peptides [3]: -13.2 kcal/mol
- ΔS, synthetic peptides [3]: −10.0 cal mol^−1 K^−1
- ΔH, expressed peptides [4]: -13.3 kcal/mol
- ΔS, expressed peptides [4]: −7.5 cal mol^−1 K^−1

Molecule: HIF-1α L792A: GFP-HIF-1α776–826 C-TAD single alanine variant L792A ({GFP}-SDLACRLLGQSMDESGAPQLTSYDCEVNAPIQGSRNLLQGEELLRALDQVN; cysteine pairing not given here)
- ΔS [2]: −14.5 ^a cal mol^−1 K^−1
- ΔH [2]: −13.6 ^a (−13.9, −13.2) kcal mol^−1

Molecule: E801A: GFP-HIF-1α776–826 C-TAD single alanine variant E801A ({GFP}-SDLACRLLGQSMDESGLPQLTSYDCAVNAPIQGSRNLLQGEELLRALDQVN; cysteine pairing not given here)
- Kd [1]: 227 ± 78 nM
- ΔS [2]: −9.5 cal mol^−1 K^−1
- ΔH [2]: -12.2 kcal/mol

Molecule: Ac-DEEVLMSLVIEMGLDRIKELPELWLGQNEFDFMTDF-NH2 [CITED224–259]
- ΔH, synthetic peptides [3]: -12.4 kcal/mol
- ΔS, synthetic peptides [3]: −3.6 cal mol^−1 K^−1
- ΔH, expressed peptides [4]: -12.4 kcal/mol
- ΔS, expressed peptides [4]: −6.2 cal mol^−1 K^−1

B1: HIF-1α 776–826, chemically synthesized peptide (peptide, UniProt Q16665 776-826, looked up)
peptide: Ac-SDLACRLLGQSMDESGLPQLTSYDCEVNAPIQGSRNLLQGEELLRALDQVN-NH2
modifications: cysteine pairing not given here
notes: source: synthetic peptide (chemical synthesis, see ESI)
- Kd [5]: 52.2 nM
- dH [5]: -22.9 kcal/mol

B2: CITIF, HIF-1α-CITED2 hybrid sequence, chemically synthesized peptide (peptide)
chain: Ac-DEEVLMSLVIEMGLDRIKELPQLTSYDCEVNAPIQGSRNLLQGEELLRALDQVN-NH2
- dH [5]: -22.5 kcal/mol

B3: HIF-1α 786–826, chemically synthesized peptide (peptide, UniProt Q16665 786-826, looked up)
peptide: Ac-SMDESGLPQLTSYDCEVNAPIQGSRNLLQGEELLRALDQVN-NH2
notes: as for B1
- dH [5]: -25.8 kcal/mol

B4: GFP-tagged wt HIF-1α 776–826 C-TAD (domain or fragment, UniProt Q16665 776-826, looked up)
chain: SDLACRLLGQSMDESGLPQLTSYDCEVNAPIQGSRNLLQGEELLRALDQVN
notes: source: recombinantly expressed as a fusion protein with GFP
- Kd [6]: 86 nM
- dH [6]: -17.3 kcal/mol
- Kd [7]: 55 nM

B5: GFP-HIF-1α 776–826 D823A (domain or fragment, UniProt Q16665 776-826, looked up)
chain: B4 chain with D48A
notes: As m3 with the stated change; also called HIF-1α D823A; source: recombinantly expressed as a fusion protein with GFP
- Kd [6]: 369 nM
- dH [6]: -13 kcal/mol
- Kd [7]: 192 nM

B6: GFP-HIF-1α 776–826 E801A (domain or fragment, UniProt Q16665 776-826, looked up)
chain: B4 chain with E26A
notes: As m3 with the stated change; also called HIF-1α E801A; source: recombinantly expressed as a fusion protein with GFP
- Kd [6]: 359 nM
- dH [6]: -12.2 kcal/mol
- Kd [7]: 227 nM

B7: GFP-HIF-1α 776–826 L792A (domain or fragment, UniProt Q16665 776-826, looked up)
chain: B4 chain with L17A
notes: As m3 with the stated change; measured by ITC only; also called HIF-1α L792A; source: recombinantly expressed as a fusion protein with GFP
- Kd [6]: 386 nM
- dH [6]: -13.6 kcal/mol
